B1: plasmin: pure plasmin, serine protease deposited on the array (protein, UniProt P00747 20-580; P00747 581-810, looked up)
Plasmin heavy chain A: EPLDDYVNTQGASLFSVTKKQLGAGSIEECAAKCEEDEEFTCRAFQYHSKEQQCVIMAENRKSSIIIRMRDVVLFEKKVYLSECKTGNGKNYRGTMSKTKNGITCQKWSSTSPHRPRFSPATHPSEGLEENYCRNPDNDPQGPWCYTTDPEKRYDYCDILECEEECMHCSGENYDGKISKTMSGLECQAWDSQSPHAHGYIPSKFPNKNLKKNYCRNPDRELRPWCFTTDPNKRWELCDIPRCTTPPPSSGPTYQCLKGTGENYRGNVAVTVSGHTCQHWSAQTPHTHNRTPENFPCKNLDENYCRNPDGKRAPWCHTTNSQVRWEYCKIPSCDSSPVSTEQLAPTAPPELTPVVQDCYHGDGQSYRGTSSTTTTGKKCQSWSSMTPHRHQKTPENYPNAGLTMNYCRNPDADKGPWCFTTDPSVRWEYCNLKKCSGTEASVVAPPPVVLLPDVETPSEEDCMFGNGKGYRGKRATTVTGTPCQDWAAQEPHRHSIFTPETNPRAGLEKNYCRNPDGDVGGPWCYTTNPRKLYDYCDVPQCAAPSFDCGKPQVEPKKCPGR
Plasmin light chain B: VVGGCVAHPHSWPWQVSLRTRFGMHFCGGTLISPEWVLTAAHCLEKSPRPSSYKVILGAHQEVNLEPHVQEIEVSRLFLEPTRKDIALLKLSSPAVITDKVIPACLPSPNYVVADRTECFITGWGETQGTFGAGLLKEAQLPVIENKVCNRYEFLNGRVQSTELCAGHLAGGTDSCQGDSGGPLVCFEKDKYILQGVTSWGLGCARPNKPGVYVRVSRFVTWIEGVMRNN
modifications: plasmin
notes: pure plasmin, serine protease deposited on the array
B2: tPA: pure tPA delivered by aerosol deposition to a sensing array (protein, UniProt P00750 36-562, looked up)
Tissue-type plasminogen …: SYQVICRDEKTQMIYQQHQSWLRPVLRSNRVEYCWCNSGRAQCHSVPVKSCSEPRCFNGGTCQQALYFSDFVCQCPEGFAGKCCEIDTRATCYEDQGISYRGTWSTAESGAECTNWNSSALAQKPYSGRRPDAIRLGLGNHNYCRNPDRDSKPWCYVFKAGKYSSEFCSTPACSEGNSDCYFGNGSAYRGTHSLTESGASCLPWNSMILIGKVYTAQNPSAQALGLGKHNYCRNPDGDAKPWCHVLKNRRLTWEYCDVPSCSTCGLRQYSQPQFRIKGGLFADIASHPWQAAIFAKHRRSPGERFLCGGILISSCWILSAAHCFQERFPPHHLTVILGRTYRVVPGEEEQKFEVEKYIVHKEFDDDTYDNDIALLQLKSDSSRCAQESSVVRTVCLPPADLQLPDWTECELSGYGKHEALSPFYSERLKEAHVRLYPSSRCTSQHLLNRTVTDNMLCAGDTRSGGPQANLHDACQGDSGGPLVCLNDGRMTLVGIISWGLGCGQKDVPGVYTKVTNYLDWIRDNMRP

Columns and labels:
[1] = Morita, 1977; cited from earlier work
[2] = system: fluorogenic substrates on the array; assay: Microarray assay of diluted recalcified citrated plasma with added plasmin; assay type: biochemical, human
Method: (§1) Well characterized for over 30 years, serine proteases of the coagulation pathway in plasma were selected as a system in which to monitor the delivery of complex enzyme fluids to the microassay. Fluorogenic substrates in DMSO/glycerol were assayed to a glass slide.
The microarray detected the modest activation of the coagulation pathway in recalcified diluted plasma due to low level factor Xa and thrombin activity (Butenas, 1997; Rand, 1996). Since corn trypsin inhibitor was not present to inhibit factor XIIa (Rand, 1996), moderate activation of the contact system and kallikrein generation was detected by conversion of the kallikrein substrate.
[…] This plasmin activity was detected by a strong signal in the plasmin substrate spot. […] Plasmin is also a potent activator of factor XU to factor XUa which can in turn convert prekallikrein to kallilkrein.

[3] = Fluorogenic substrate microarray, aerosol deposition of enzyme: boc-VLK-MCA; assay type: biochemical; settings: pure plasmin 1 μM deposited on the array
[4] = Fluorogenic substrate microarray: plasmin on thrombin and kallikrein substrates; assay type: biochemical; settings: pure plasmin 1 μM
Method: as §1
(§2) After spray application, thrombin caused a 65-fold increase in fluorescence activity after conversion of the boc-VPR-MCA substrate. […] Aerosol deposition of pure tPA (10 μM) to a sensing array caused significant cleavage of the tPA, thrombin and Xa substrates, resulting in fluorescence that was 18- to 20-fold above background.

[5] = Fluorogenic substrate microarray: tPA on tPA, thrombin and Xa substrates; assay type: biochemical; settings: aerosol deposition of pure tPA 10 μM
Method: as §1, §2

Molecule | reported activity on boc-VPR-MCA and Z-FR-MCA [1] | reported activity on tPA and factor Xa substrates [1] | signal in the plasmin substrate spot ([2]; plasmin 0.43 μM final concentration added to diluted recalcified citrated plasma) | cleavage of substrates on the array ([2]; plasmin 2.14-1 μM final concentration added to plasma) | signal for the boc-VLK-MCA substrate above background [3] | activity on the thrombin and kallikrein substrates [4] | fluorescence above background from cleavage of the tPA, thrombin and Xa substrates [5]
B1 | activity | no detectable activity | strong signal | significant cleavage of each substrate | 25 fold | detectable activity | 
B2 |  |  |  |  |  |  | 18- to 20 fold
